Data taken from the RNAGym collection of RNA variant scans (doi:10.1093/molbev/msab373).

B1: Azoarcus group I ribozyme (parent)
chain: GUGCCUUGCGCCGGGAAACCACGCAAGGGAUGGUGUCAAAUUCGGCGAAACCUAAGCGCCCGCCCGGGCGUAUGGCAACGCCGAGCCAAGCUUCGGCGCCUGCGCCGAUGAAGGUGUAGAGACUAGACGGCACCCACCUAAGGCAAACGCUAUGGUGAAGGCAUAGUCCAGGGAGUGGCGAAAGUCACACAAACCGG

Variants of: B1
Test: reverse-splicing fitness (ratio to wild type); higher = more active; in vitro selection; Mg2+ level not given
Outline: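 An in vitro group I ribozyme library with randomized positions was T7-transcribed and gel-purified. In triplicate, 10 pmol RNA in EPPS pH 7.5 was reacted with 50 pmoles of a 30-nt RNA substrate for 1 h at 37 °C across several added MgCl2 levels (1–48 mM), then stopped with EDTA. Products were reverse transcribed from a substrate-complementary primer, PCR-amplified and sequenced (HiSeq 4000). Fitness is a variant's read proportion after selection over that before, normalised to wild type.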
In the case of C82U A120C A145C C150U C169G, the reverse-splicing fitness is reported as 0.00596. C82U A120C A145C C150U C169U showed a reverse-splicing fitness of 0.0104. Work on C82U A120C A145C C150U C169A yielded a reverse-splicing fitness of 0.00607. Work on C82U A111U C169G U176C yielded a reverse-splicing fitness of 0.0183. Work on C82U A111U C169G U176G yielded a reverse-splicing fitness of 0.0052. C82U A111U C169G U176A gave a reverse-splicing fitness of 0.0162. Variant C82U A111U C150G C169A has a reverse-splicing fitness of 0.00799. C82U A111U C150G C169G gave a reverse-splicing fitness of 0.00698. In the case of C82U A111U C150G C169U, the reverse-splicing fitness is reported as 0.0095. Variant C82U A120C A145G has a reverse-splicing fitness of 0.169. With C82U A120C A145C the reverse-splicing fitness was 0.149. C82U A120C A145U showed a reverse-splicing fitness of 0.155. In the case of C82U A120C A145G C150G C169G, the reverse-splicing fitness is reported as 0.00749. In the case of C82U A120C A145G C150G C169A, the reverse-splicing fitness is reported as 0.00952. C82U A120C A145G C150G C169U showed a reverse-splicing fitness of 0.0108. With C82U A111U C150A C169U U176G the reverse-splicing fitness was 0.0075. With C82U A111U C150A C169U U176A the reverse-splicing fitness was 0.0198. Work on C82U A111U C150A C169U U176C yielded a reverse-splicing fitness of 0.0152. For C82U A120C A145U C150U C169A, the reverse-splicing fitness was 0.0082. Work on C82U A120C A145U C150U C169G yielded a reverse-splicing fitness of 0.00708. C82U A120C A145U C150U C169U showed a reverse-splicing fitness of 0.0166. Variant C82U A111U C150G has a reverse-splicing fitness of 0.0213. C82U A111U C150U gave a reverse-splicing fitness of 0.157. Work on C82U A120C C150U C169U yielded a reverse-splicing fitness of 0.0165. For C82U A120C C150U C169A, the reverse-splicing fitness was 0.00876. C82U A120C C150U C169G showed a reverse-splicing fitness of 0.00713. With C82U A111U C150U U176C the reverse-splicing fitness was 0.0816. For C82U A111U C150U U176G, the reverse-splicing fitness was 0.0154. Variant C82U A111U C150U U176A has a reverse-splicing fitness of 0.0519. For C82U A120C A145U C169U U176G, the reverse-splicing fitness was 0.00405. In the case of C82U A120C A145U C169U U176A, the reverse-splicing fitness is reported as 0.0169. Work on C82U A120C A145U C169U U176C yielded a reverse-splicing fitness of 0.0155. With C82U A120C A145U U176A the reverse-splicing fitness was 0.0458. Variant C82U A120C A145U U176C has a reverse-splicing fitness of 0.0723. C82U A120C A145U U176G showed a reverse-splicing fitness of 0.0114. Variant C82U A120C A145C C150A C169A U176G has a reverse-splicing fitness of 0.00369. In the case of C82U A120C A145C C150A C169A U176C, the reverse-splicing fitness is reported as 0.00429. C82U A120C A145C C150A C169A U176A gave a reverse-splicing fitness of 0.00849. With C82U A111U C150G C169G U176C the reverse-splicing fitness was 0.00452. C82U A111U C150G C169G U176A gave a reverse-splicing fitness of 0.00711. With C82U A111U C150G C169G U176G the reverse-splicing fitness was 0.00532. Work on C82U A120C C150A C169U yielded a reverse-splicing fitness of 0.0109. C82U A120C C150A C169G gave a reverse-splicing fitness of 0.00799. Variant C82U A120C C150A C169A has a reverse-splicing fitness of 0.00872. C82U A120C C169U U176G gave a reverse-splicing fitness of 0.00414. With C82U A120C C169U U176A the reverse-splicing fitness was 0.0188. With C82U A120C C169U U176C the reverse-splicing fitness was 0.0166. In the case of C82U A120C A145U C150G C169U U176A, the reverse-splicing fitness is reported as 0.00974. Work on C82U A120C A145U C150G C169U U176G yielded a reverse-splicing fitness of 0.00467. Variant C82U A120C A145U C150G C169U U176C has a reverse-splicing fitness of 0.0116. Variant C82U A120C A145G C150U C169U U176C has a reverse-splicing fitness of 0.0169. C82U A120C A145G C150U C169U U176G gave a reverse-splicing fitness of 0.00416. C82U A120C A145G C150U C169U U176A gave a reverse-splicing fitness of 0.0165. Variant C82U A120C A145C C150G C169U has a reverse-splicing fitness of 0.0107. C82U A120C A145C C150G C169A gave a reverse-splicing fitness of 0.00723. With C82U A120C A145C C150G C169G the reverse-splicing fitness was 0.00584. For C82U A120C A145C C150G, the reverse-splicing fitness was 0.0204. Work on C82U A120C A145C C150U yielded a reverse-splicing fitness of 0.0393. For C82U A120C A145C C150A, the reverse-splicing fitness was 0.0114. For C82U A120C A145C C150A C169G, the reverse-splicing fitness was 0.00551. In the case of C82U A120C A145C C150A C169U, the reverse-splicing fitness is reported as 0.00777. With C82U A120C A145C C150A C169A the reverse-splicing fitness was 0.00632. Work on C82U A120C C150U U176C yielded a reverse-splicing fitness of 0.0444. Variant C82U A120C C150U U176A has a reverse-splicing fitness of 0.0291. For C82U A120C C150U U176G, the reverse-splicing fitness was 0.00855. C82U A111U C150A U176G gave a reverse-splicing fitness of 0.00896. For C82U A111U C150A U176C, the reverse-splicing fitness was 0.0289. Variant C82U A111U C150A U176A has a reverse-splicing fitness of 0.0157. For C82U A120C A145G C150G C169A U176A, the reverse-splicing fitness was 0.0124. In the case of C82U A120C A145G C150G C169A U176G, the reverse-splicing fitness is reported as 0.00772. For C82U A120C A145G C150G C169A U176C, the reverse-splicing fitness was 0.0131. For C82U A111U C150U C169G, the reverse-splicing fitness was 0.00892. In the case of C82U A111U C150U C169A, the reverse-splicing fitness is reported as 0.00856. C82U A111U C150U C169U gave a reverse-splicing fitness of 0.0102. With C82U A120C C150G C169A U176G the reverse-splicing fitness was 0.00606. With C82U A120C C150G C169A U176A the reverse-splicing fitness was 0.0104. With C82U A120C C150G C169A U176C the reverse-splicing fitness was 0.00991. Work on C82U A120C C150G C169G U176G yielded a reverse-splicing fitness of 0.00432. Work on C82U A120C C150G C169G U176A yielded a reverse-splicing fitness of 0.00705. C82U A120C C150G C169G U176C showed a reverse-splicing fitness of 0.00447. In the case of C82U A120C C150A C169A U176G, the reverse-splicing fitness is reported as 0.00426. For C82U A120C C150A C169A U176C, the reverse-splicing fitness was 0.0132. In the case of C82U A120C C150A C169A U176A, the reverse-splicing fitness is reported as 0.0169.
